B1: FBXO3 (parent)
chain: GGFPIIRDQIFRYVHDPECVATTG
B2: CCDC70 (parent)
chain: FSFKVSRWMGLACFRSLAASSPSI

Variants of: B1
Experiment: protein stability index of a GFP-peptide fusion (GPS, HEK-293T) (PSI 1-6); higher = more stable
Settings: c terminus: a fixed tail appended
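Further: lentivirally expressed fusions sorted by FACS into six bins by GFP to DsRed ratio, PSI derived from sequencing read proportions per bin multiplied by bin number.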

Protein stability index of substitutions, site by site:
F3: T 3.17; D 3.2; I 2.29; K 2.87; Y 1.57; G 2.55; S 2.59; C 2.14; M 2.1; V 2.38; N 2.78; Q 2.58; H 2.21; A 3.13; P 2.76; R 2.59; L 1.94; E 2.9; W 2.28
I5: F 1.58; R 1.86; L 1.64; C 1.86; W 1.53; A 2.39; E 2.64; D 2.61; H 2.14; G 2.32; Y 2.26; M 2.71; P 1.85; T 2.28; V 1.58; Q 1.59; K 1.19; S 2.23; N 2.4
P4: C 2.23; G 2.33; E 2.93; I 2.08; V 1.29; Q 1.75; N 2.15; S 2.03; L 2.39; A 1.66; R 2.21; F 2.3; Y 2.75; T 1.67; H 2.02; K 2.54; D 2.72
G2: F 2.03; Q 1.25; I 2.2; C 1.51; Y 1.78; A 1.82; E 1.97; T 2.19; N 2.28; V 2.5; K 2.54; R 2.41; S 1.76; D 3.02; L 1.86; P 2.38; M 1.68; W 2.87; H 1.76
R7: D 3.92; C 2.35; F 1.67; G 2.99; E 3.79; A 3.41
I6: A 2.57; P 2.35; K 2.52; G 2.23; W 1.82; L 2.16; Q 2.69; S 2.44; V 1.61; R 2.13; N 2.34; T 2.76; F 1.46; M 1.46; C 1.96; D 3.56; E 3.52; H 2.32; Y 1.99
G1: P 2.51; A 2.29; I 2.05; W 1.73; D 2.65; C 1.21; T 2.74; S 2.01; L 1.64; M 1.64; R 2.16; Q 2.15; F 1.55; V 1.79; Y 1.55; H 2.02; K 2.15; N 2.4; E 2.6

Variants of: B2
Experiment: as above
Settings: c terminus: a fixed tail appended

Protein stability index: each site, then its substitutions
A19: P 2.09; H 2.03; E 3.77; V 3.78; Q 2.32; C 1.8; Y 3.36; W 3.71; M 3.27; S 3.28; T 3.93; F 1.36; D 2.88; L 3.58; G 2.19; R 3.39; N 3.2
S20: V 2.6; Y 2.74; D 3.1; A 3.7; C 3.42; M 2.2; I 3.96; P 1.35; R 4.31; W 3.37; T 2.31; L 3.27; F 4.72; K 3.32; G 2.51; H 1.81; N 2.46
C13: P 1.82; L 3.57; H 2.36; F 3.96; W 2.35; Y 3.24; K 1.46; V 2.52; I 2.56; S 2.66; D 2.05; T 1.63; R 3.4; G 2.27
S21: E 3.18; P 3.96; Y 1.82; W 2.85; R 1.75; A 1.99; K 2.57; D 2.8; M 3.02; N 2.04; I 3.37; Q 2.23; C 2.05; G 2.62; L 3.55; F 3.31
A12: L 2; R 1.49; H 1.57; K 3.62; F 2.57; D 2.87; S 2.02; V 1.98; E 2.75; M 3.25; P 2.56; Y 2.87; Q 3.81; I 3.43; C 3.26
S16: W 2.79; C 2.56; K 2.18; P 3.05; E 4.34; I 1.98; A 3.04; G 3.37; R 3.88; L 2.13; Y 3.27; N 3.94; F 2.55; D 2.86; H 3.13; Q 2.42
G10: M 4.54; S 2.98; N 3.79; E 3.35; K 3.17; W 3.9; P 4.98; R 2.37; F 1.86; V 2.36; Y 4.12
I24: D 2.72; E 1.44; F 2.56; L 3; M 2.23; K 2.12; C 1.94; Y 3.49; W 3.1; P 1.41; Q 2.38; A 2.67; G 2.36; N 2.33; S 2.06
L11: A 3.24; Y 3.04; T 3.12; I 3.88; N 2.65; D 2.84; S 3.51; G 3.16; F 3.35; M 3.73; H 5.37; E 1.76; R 4.02; P 2.72
R15: A 3.76; I 2.04; Q 5.05; T 2.79; Y 2.87; H 3.52; L 3.13; W 4.5; S 1.7; M 3.86; V 3.28; D 2.71; E 3.26
A18: R 2.21; T 2.82; W 1.96; V 2.58; F 2.74; L 2.9; Y 3.5; K 4.48; E 2.71; S 2.69; D 2.71; M 2.78; H 2.37
L17: M 2.77; A 1.7; H 2.29; N 2.73; Y 2.69; Q 1.83; T 2.3; S 1.87; R 2.19; V 2.84; G 3.62; P 3.88; K 2.45; I 1.86
S23: T 2.67; Y 2.1; V 2.53; H 1.65; F 3.09; Q 3.59; D 3.88; C 2.6; N 3.56; L 4.22; K 2.68
P22: R 2.46; K 2.38; N 3.22; D 2.97; T 3.71; H 1.85; Y 2.86; E 3.78; W 3.4; F 2.51; A 1.68; M 3.36; C 2.36; V 2.95; Q 3.8
F14: W 1.7; M 2.21; L 2; N 2.56; G 3.57; P 3.6; K 1.93; V 3.5; R 4.52; I 1.54; Q 1.72; A 3.51; D 2.84; S 1.61; T 1.31

— the supplement of paper PMC10567573
